# Data taken from patent US20250136692A1 (GEORGIAMUNE, published 2025).
# Biological target: PD-1 on human CD4+ T cells (human, UniProt Q15116 25-288)
# Experiment: cell-based or functional assay
# PD-1 on human CD4+ T cells, sequence (Q15116 25-288 limits assumed): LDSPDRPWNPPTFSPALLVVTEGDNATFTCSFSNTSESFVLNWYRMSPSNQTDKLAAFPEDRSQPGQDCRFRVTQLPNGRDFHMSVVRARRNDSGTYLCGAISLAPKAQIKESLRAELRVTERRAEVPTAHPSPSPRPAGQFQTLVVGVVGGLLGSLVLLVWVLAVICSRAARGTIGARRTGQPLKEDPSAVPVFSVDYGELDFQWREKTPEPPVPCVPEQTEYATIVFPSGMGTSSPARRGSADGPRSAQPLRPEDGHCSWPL
"IFN-γ levels in the supernatants of human CD4 T cells (ELISA), 4G9-2 at 25 µg/mL for 72 hours [fold]","ITK/SHP2 ratio (normalized to levels of PD-1), Protein A immunoprecipitation and Western blot [fold]",Binder
3,–,"4G9-2 (antibody, human IgG1, kappa, V domains shown) VH: QVQLVQSGAEVKKPGASVKVSCKASGYTFTTYGINWVRQATGQGLEWMGWINTYSGVPGYAQKFQGRVTMTLNTSISTAYMELSSLRSEDTAVYYCARGSGGFAYWGQGTLVTVSS VL: not shown"
–,3,"4G9-12 (antibody, V domains shown) VH: QVQLVQSGAEVKKPGASVKVSCKASGYTFTTYGINWVRQATGQGLEWMGWINTYSGVPGYAQKFQGRVTMTLDTSISTAYMELSSLRSEDTAVYYCARGSGGFAYWGQGTLVTVSS VL: not shown"
